# Source: patent US20100216196A1 (AJINOMOTO, published 2010)
# T1: DsbA protein of Escherichia coli (protein encoded by the dsbA gene) (Escherichia coli, UniProt P0AEG4 20-208, free cysteine thiols labelled with AMS (4-acetamido-4'-maleimidyl-stilbene-2,2'-disulfonate) before electrophoresis)
# T1 construct: Endogenous periplasmic DsbA of E. coli BW25113, detected in cell lysates; also called disulfide oxidoreductase
# T1 sequence: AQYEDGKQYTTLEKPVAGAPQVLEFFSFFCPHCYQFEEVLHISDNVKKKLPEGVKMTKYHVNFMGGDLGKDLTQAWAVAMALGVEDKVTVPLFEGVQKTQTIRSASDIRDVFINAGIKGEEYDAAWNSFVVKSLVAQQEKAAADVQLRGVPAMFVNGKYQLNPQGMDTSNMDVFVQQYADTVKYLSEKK
# B1: DsbB (enzyme)
# chain: MLRFLNQCSQGRGAWLLMAFTALALELTALWFQHVMLLKPCVLCIYERCALFGVLGAALIGAIAPKTPLRYVAMVIWLYSAFRGVQLTYEHTMLQLYPSPFATCDFMVRFPEWLPLDKWVPQVFVASGDCAERQWDFLGLEMPQWLLGIFIAYLIVAVLVVISQPFKAKKRDLFGR
# notes: Endogenous protein in the wild-type strain, seen only as the DsbA-DsbB complex band on the anti-DsbA Western blot; also called intracellular membrane protein DsbB
# Target: T1, DsbA protein of Escherichia coli …
# Test: AMS modification, non-reducing SDS-PAGE and Western blot with anti-DsbA serum; wild-type E. coli BW25113 exposed to 5 mM cysteine
binder,measurement,value
B1,binding result,binds
